Source: publication PMC8692065 (Cell Reports, 2021)

Biological target: SARS-CoV-2 S1 (Avi-tag, biotinylated) (SARS-CoV-2, original strain, UniProt P0DTC2, biotinylated (Avi-tag))
Assay: BLI

Row | Binder | Kd [nM]
1 | mAb-50, purified antibody (antibody, V domains shown) VH: QVQLQESGPGLVNPSETLSLTCGVSGYSISSGFYWGWIRQPPGKGLEWIGSIYHRGSTFYNPSLKSRVTISVDRSKNQFSLRLSSVTAADTAVYYCARGEVLTSGGYNARFDPWGQGTLVTVSS VL: DIQMTQSPSTLSASVGDSVTITCRASQSISLWLAWYQQKPGKAPKVLIYETSSLESGVPSRFSGSGAGTEFTLTISSLQPDDFATYYCQQYISYPLTFGGGTKVEIK | 1.61
2 | mAb-64, purified antibody (antibody, V domains shown) VH: EVQLVETGGGLIQPGGSLRLSCAASGFTVSSNYMSWVRQAPGKGLEWVSVIYSGGSTYYADSVKGRFTISRDNSKNTLYLQMNSLRAEDTAVYYCARDLHIYGMDVWGQGTTVTVSS VL: DIQMTQSPSSVSASVGDRVTITCRASQGISSWLAWYQQKPGKAPKLLIYAASSLQSGVPSRFSGSGSGTDFTLTISSLQPEDFATYYCQQANSFPNFGGGTKVEIK | 1.96
